Assay results reported in the supplement of paper PMC10567573.

B1: MIA2 (parent)
chain: NSISSDKEATVPCTEILTEKKDTI
B2: FBF1 (parent)
chain: LQRASILDMRRDHEEQLQRLKLLK

Variants of: B1
Assay: protein stability index of a GFP-peptide fusion (GPS, HEK-293T) (PSI 1-6); higher = more stable
Details: c terminus: a fixed tail appended
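Note: lentivirally expressed fusions sorted by FACS into six bins by GFP to DsRed ratio, PSI derived from sequencing read proportions per bin multiplied by bin number.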

Protein stability index, by site and new letter:
D22: V 4.31, Q 5.11, S 4.7
E8: H 4.91, V 4.99
K7: C 5.31, M 4.95, T 5.49
T14: P 5.45, H 5.45
V11: H 4.62
I24: V 5.63, H 5.45
T10: E 5.82, C 5.5, A 5.65
P12: G 5.53, Q 5.4
I3: W 5.52, A 5.61, Q 5.6, S 5.42
C13: L 5.25, M 5.59
T18: P 5.26, R 5.1, A 4.93, S 5.39
I16: N 5.47, M 5.49
N1: M 5.33, Q 5.44
S2: Q 5.33
S4: W 5.11, A 5.41
L17: C 5.51, I 5.34
S5: A 5.33, T 5.39, W 5.17
A9: D 5.11, V 5.17, K 5.47
T23: M 5.33, H 5.3
K21: M 5.7, S 5.37
E19: Y 5.06, D 5.46, W 4.59
E15: K 4.92, D 5.45, G 4.92, T 5.46, C 4.8

Variants of: B2
Assay: as above
Details: c terminus: a fixed tail appended

Protein stability index of substitutions, site by site:
R19: D 4.26, H 2.78, E 4.25, Q 3.33, W 2.25, S 3.48, F 1.69, L 2.22, I 2.11, G 3.75, T 2.85, N 3.89
A4: N 3.83, M 3.19, T 3.6, S 2.67, L 3.13, G 3.17, V 2.57, D 3.64, Q 3.7, Y 2.96, I 3.13, P 4.08, K 3.19, C 2.97
L17: R 3.54, Y 3.55, T 4.19, D 4.23, G 4.03, E 4.07, P 4.63, S 3.77, M 3.72, F 3.17
L1: T 3.94, V 3.51, A 3.81, F 3.19, N 3.64, K 3.64, I 4.12, E 4.42, H 3.33, M 3.45, R 3.3, Y 2.35, S 3.35
L20: S 4.11, R 4.13, Y 3.83, C 4.17, F 3.06, P 4.21, V 3.79, T 4.09, N 4.22, Q 4.33, I 3.3, H 3.96, E 4.49
Q2: P 3.95, H 3.35, W 2.4, R 3.27, S 3.15, A 3.28, D 3.94
L7: M 3.85, I 3.09, R 3.6, S 4.27, Q 3.65, G 4.1, N 3.99, A 4.22, W 2.9, D 4.03, H 4.1
E15: G 3.56, I 2.37, D 3.34, F 2.68, Y 2.84, N 2.91, S 2.96, L 2.56, M 3.12, C 2.5, R 3.22
Q16: Y 2.75, F 1.73, W 2.97, T 3.45, P 3.51, M 1.38, K 3.61, G 4.09, S 3.43, H 2.64
L22: Q 4.27, V 3.92, E 4.33, C 3.94, D 3.63, H 4.1, F 3.5, W 3.27, K 3.74, N 4.4, T 4.35, R 3.74, Y 3.15, S 4.21, M 3.44
K24: P 3.55, F 2.65, V 1.92, R 3.3, N 3.55, A 2.19, D 4.12, S 2.82, E 3.52, H 3.44, T 2.87
L23: A 4.14, Q 4.15, F 3.88, S 4.42, K 4.22, Y 3.12, T 4.03, N 4.54, H 4.26, E 4.8, P 3.89
H13: D 3.69, N 3.95, P 3.33, S 3.84, A 3.89, G 3.25, V 2.46, W 2.38, R 3.19, L 2.36, T 3.27, M 3.13, I 2.54
D12: T 3.69, H 3.3, W 2.34, M 2.81, L 2.8, R 3.05, A 3.41, F 2.74, N 3.78, K 3.15, I 3.2, C 2.51, G 3.21
R3: C 3.02, Q 3.33, D 4.17, G 4.21, M 3.02, H 3.92, P 4.02, K 3.74, N 3.93, Y 3.4, I 2.23, E 4.12, F 2.8
E14: I 3.08, K 3.43, P 2.82, W 2.69, A 3.32, T 2.96, D 3.6, G 3.12, H 3.13, F 2.38, Y 3.04, V 2.69, Q 3.49
Q18: H 3.02, R 3.37, M 2.86, W 2.45, F 2.19, V 3.11, G 3.79, D 3.58, E 3.3, P 3.26, A 3.7, L 2.92
R11: N 3.1, M 3.03, D 3.69, F 2.89, L 3.44, A 3.23, Q 3.59, K 3.7, I 2.98
D8: Y 2.72, N 3.48, C 3.2, P 3.51, S 3.6, F 2.56, A 3.01, H 3.61, T 3.49, L 2.19, R 2.71, I 2.51
R10: Y 2.59, T 3.79, P 3.53, A 3.36, H 3.45, E 3.35, M 2.9, F 2.36, D 3.44, Q 3.51, K 3.97, V 3.33
K21: M 3.55, Y 2.98, I 2.96, G 3.49, R 3.28, C 2.65, F 2.85, L 3.01, N 3.57, A 3.59, E 4.02
M9: I 3.81, S 3.49, W 3.04, R 3.72, F 3.22, P 3.93, D 3.4, E 3.72, Y 3.61
I6: G 4.28, N 4.16, W 3.62, E 3.98, K 3.7, P 3.94, F 3.51, L 4.02, C 3.4
S5: N 3.65, P 3.48, G 3.71, L 2.49, T 3.52, H 2.86, K 3.21, C 2.99, A 3.59, E 3.15, Q 3.85, F 2.3, I 2.34, M 3.03, W 2.34
